Columns and labels:
RPM = experiment: ELISA; printed as ng/uL
FFL_001 [1] = experiment: ELISA; printed as ng/uL
FFL_001 [2] = experiment: SPR

B1: 3J20 (antibody, V domains shown)
VH: EVQLVESGGGLVQPGGSLRLSCAASGFTFSSFTMNWVRQAPGKGLQWVSTISGSGGLTYYADSVKGRFTISRDNSKNTLSLQMNSLRAEDTAVYYCARDLEFTVTSYGGYYFEYWGQGTLVTVSS
VL: not shown
EC50 (RPM): 12.7 µg/mL
EC50 (FFL_001 [1]): 11.1 µg/mL

B2: 3J20 (Fab, V domains shown)
VH: EVQLVESGGGLVQPGGSLRLSCAASGFTFSSFTMNWVRQAPGKGLQWVSTISGSGGLTYYADSVKGRFTISRDNSKNTLSLQMNSLRAEDTAVYYCARDLEFTVTSYGGYYFEYWGQGTLVTVSS
VL: not shown
Kd (FFL_001 [2]): 1.05 nM

B3: 13A8 (antibody, V domains shown)
VH: QVQLVESGGGVVQPGKSLRLSCAASGYIFSSYDMHWVRQAPGKGLEWVAVISFDGTTQHYADSVRGRFTVSRDNSQNTVFLQMNSLRPEDTAVYYCVKEYVIVSTFFDYWGQGTLVTVSS
VL: DIVMTQSPSSLSASVGDRVTITCRASQGIRNALGWYQHKPGKAPKVLIYAASRLQSGVPSRFSGSGSGTDFTLTISSLQPEDFATYYCLQDFNYPWTFGHGTKVEIK
EC50 (RPM): 14.8 µg/mL
EC50 (FFL_001 [1]): 17.9 µg/mL

B4: 13A8 (Fab, V domains shown)
VH: QVQLVESGGGVVQPGKSLRLSCAASGYIFSSYDMHWVRQAPGKGLEWVAVISFDGTTQHYADSVRGRFTVSRDNSQNTVFLQMNSLRPEDTAVYYCVKEYVIVSTFFDYWGQGTLVTVSS
VL: DIVMTQSPSSLSASVGDRVTITCRASQGIRNALGWYQHKPGKAPKVLIYAASRLQSGVPSRFSGSGSGTDFTLTISSLQPEDFATYYCLQDFNYPWTFGHGTKVEIK
Kd (FFL_001 [2]): 0.2 nM

B5: Motavizumab (antibody, V domains shown)
VH: QVTLRESGPALVKPTQTLTLTCTFSGFSLSTAGMSVGWIRQPPGKALEWLADIWWDDKKHYNPSLKDRLTISKDTSKNQVVLKVTNMDPADTATYYCARDMIFNFYFDVWGQGTTVTVSS
VL: DIQMTQSPSTLSASVGDRVTITCSASSRVGYMHWYQQKPGKAPKLLIYDTSKLASGVPSRFSGSGSGTEFTLTISSLQPDDFATYYCFQGSGYPFTFGGGTKVEIK
EC50 (RPM): 16.7 µg/mL
EC50 (FFL_001 [1]): 10.4 µg/mL

B6: Palivizumab (antibody, V domains shown)
VH: QVTLRESGPALVKPTQTLTLTCTFSGFSLSTSGMSVGWIRQPPGKALEWLADIWWDDKKDYNPSLKSRLTISKDTSKNQVVLKVTNMDPADTATYYCARSMITNWYFDVWGAGTTVTVSS
VL: DIQMTQSPSTLSASVGDRVTITCKCQLSVGYMHWYQQKPGKAPKLLIYDTSKLASGVPSRFSGSGSGTEFTLTISSLQPDDFATYYCFQGSGYPFTFGGGTKLEIK
EC50 (RPM): 26.1 µg/mL
EC50 (FFL_001 [1]): 49 µg/mL

B7: 14N4 (antibody, V domains shown)
VH: QVQLVESGGGLIQPGGSLRLSCAVSGFTVSSKYMTWVRQAPGKGLEWVSVIYGGGSTYYADSVVGRFTISRDNSKNTLYLQMNSLRAEDTAVYYCASRLGVRATTGDLDYWGQGTLVTVSS
VL: QIVMTQSPSTLSASVGDRVTITCRASQSISSWLAWYQQKPGKAPKLLIYDASSLESGVPSRFSGSGSGTEFTLTISSLQPDDFATYYCQQYNTYSWWTFGQGTKVEIK
EC50 (RPM): 7.4 µg/mL
EC50 (FFL_001 [1]): 19.3 µg/mL

B8: 14N4 (Fab, V domains shown)
VH: QVQLVESGGGLIQPGGSLRLSCAVSGFTVSSKYMTWVRQAPGKGLEWVSVIYGGGSTYYADSVVGRFTISRDNSKNTLYLQMNSLRAEDTAVYYCASRLGVRATTGDLDYWGQGTLVTVSS
VL: QIVMTQSPSTLSASVGDRVTITCRASQSISSWLAWYQQKPGKAPKLLIYDASSLESGVPSRFSGSGSGTEFTLTISSLQPDDFATYYCQQYNTYSWWTFGQGTKVEIK
Kd (FFL_001 [2]): 1.37 nM
